Holding throughout (details): both partners purified
The target in one assay is T1, e5-FtsB_(25–103) (E. coli, UniProt P0A6S5 25-103).
T1 chain: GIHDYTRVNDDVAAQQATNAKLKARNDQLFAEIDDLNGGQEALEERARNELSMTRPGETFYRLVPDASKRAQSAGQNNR
Kind of assay: SEC; analytical gel filtration, Superdex 200 10/300 GL, buffer B (20 mM Tris-HCl pH 8.0, 200 mM NaCl), 0.5 mL/min; high concentrations (101–370 μM); apparent Stokes radius compared with radii calculated from models.

The target of assay [1] is T2, FtsQ_(50–276) (E. coli, UniProt P06136 50-276).
T2 construct: pET21a; also called periplasmic domain of FtsQ; WT FtsQ; source: for the complexes purified together with its partners from mixed cell pellets
T2 sequence (P06136 50-276): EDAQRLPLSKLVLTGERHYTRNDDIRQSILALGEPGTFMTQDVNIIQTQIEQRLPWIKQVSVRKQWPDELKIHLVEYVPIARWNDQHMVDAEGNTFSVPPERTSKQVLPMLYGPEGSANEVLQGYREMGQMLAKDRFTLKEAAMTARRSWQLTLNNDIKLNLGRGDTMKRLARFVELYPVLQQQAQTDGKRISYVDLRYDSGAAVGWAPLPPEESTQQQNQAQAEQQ
The assay is described as above.

The target of assay [2] is T2, FtsQ_(50–276). Briefly: BLI; BLItz; GST-fused FtsB proteins or GST-e5-FtsB/k5-FtsL complexes immobilised on AR2G biosensor by amine coupling; FtsQ_(50–276) (WT or Y248A) in solution, 0.1–80 μM; running buffer 20 mM Tris-HCl pH 8.0, 200 mM NaCl; equilibrium analysis of points at 100 s. (Biolayer interferometry detects binding as a change in optical thickness at a sensor tip.)

The term Kd denotes a measure of binding affinity in units of concentration. A lower Kd goes with a tighter complex.

B1: k5-FtsL_(64–121) (domain or fragment)
chain: TAQREQLVLERDALDIEWRNLILEENALGDHSRVERIATEKLQMQHVDPSQENIVVQK
For the molecule B1, the “stoichiometry N” value with e5-FtsB_(25–103) is 1 FtsB:FtsL ratio (2:2).

B2: FtsB_(25–103) L46P (domain or fragment, E. coli, UniProt P0A6S5 25-103, looked up)
chain: GIHDYTRVNDDVAAQQATNAKPKARNDQLFAEIDDLNGGQEALEERARNELSMTRPGETFYRLVPDASKRAQSAGQNNR
notes: also called FtsQB L46P mutant
Take B2: the binding result with FtsQ_(50–276) [1] is given as “binds”.

B3: GST-fused FtsB_(61–103) (domain or fragment, E. coli, UniProt P0A6S5 61-103, looked up)
chain: NGGQEALEERARNELSMTRPGETFYRLVPDASKRAQSAGQNNR
notes: pGST2; source: E. coli BL21 (DE3), purified (glutathione-Sepharose, gel filtration); not shown: GST, N-terminal, kept
In turn, B3 came in with a Kd with FtsQ_(50–276) [2] of 0.9 µM.

B4: GST-fused FtsB_(25–103) (domain or fragment, E. coli, UniProt P0A6S5 25-103, looked up)
chain: GIHDYTRVNDDVAAQQATNAKLKARNDQLFAEIDDLNGGQEALEERARNELSMTRPGETFYRLVPDASKRAQSAGQNNR
notes: as for B3
On to B4, for which the Kd with FtsQ_(50–276) [2] was 0.67 µM.

The values above are taken from paper PMC6305486, “Structural Insights into the FtsQ/FtsB/FtsL Complex, a Key Component of the Divisome” (Scientific Reports, 2018).
